Here are results for seven substances from PMC9265643.

pKd: −log10 of the molar value. Several values for one entry are separate records, joined by “and”; a condition that tells them apart may be missing. Equal values may be shown once.

The target in assay [1] is non-myristoylated Gtα/Giα chimera (European robin cone Gtα with residues 220-298 replaced by the corresponding region of bovine Giα1), His6-SUMO tag removed (European robin | bovine). The assay is described as follows: SPR; Biacore 3000; Gtα/Giα chimera (myristoylated or non-myristoylated) amine-coupled on CM5 chip, 500 nM ErCry4a-497 injected; 10 mM HEPES/NaOH pH 7.4, 150 mM NaCl, 10 mM MgCl2, 0.005% Tween-20, 3.4 mM EDTA; fit to a Langmuir binding model, apparent KD. (Surface plasmon resonance follows binding to a sensor surface in real time, without labels.)

The target is the same in assay [2]. Described as above. This is another data set of the same source.
Assay [3] has as its target myristoylated Gtα/Giα chimera (European robin cone Gtα with residues 220-298 replaced by the corresponding region of bovine Giα1) (European robin | bovine). The description is as above.
Assay [4] shares this target. The assay is described as follows: SPR; Biacore 3000; Gtα/Giα chimera (myristoylated or non-myristoylated) amine-coupled on CM5 chip, ErCry variant injected; 10 mM HEPES/NaOH pH 7.4, 150 mM NaCl, 10 mM MgCl2, 0.005% Tween-20, 3.4 mM EDTA; control surface Ulp1 (activation/deactivation cycle for ErCry1a); global fit to a two-state-reaction model, apparent KD = kd1/ka1.
The target of assay [5] is non-myristoylated Gtα/Giα chimera (European robin cone Gtα with residues 220-298 replaced by the corresponding region of bovine Giα1), His6-SUMO tag removed (European robin | bovine). The description is as above.
Assay [6] has the same target. The description is as above. The source holds these as a separate data set.
Assay [7] addresses ErGtα-mRuby3 (wildtype European robin cone G protein α-subunit with mRuby3 fused to its C-terminus) (European robin). The assay is described as follows: FRET or BRET; acceptor photobleaching FRET in transiently co-transfected QNR/K2 quail neuroretina cells, fixed 48 h after transfection; donor mClover3, acceptor mRuby3; FRET efficiency in percent. A general note: BRET reads energy transfer from a luciferase to a nearby fluorophore.

In assay [8] the target is rhodopsin (dark-adapted) (Bos taurus) (UniProt P02699). The assay is described as follows: SPR. Conditions: cited from earlier work.
Chain of UniProt P02699 (P02699 whole entry): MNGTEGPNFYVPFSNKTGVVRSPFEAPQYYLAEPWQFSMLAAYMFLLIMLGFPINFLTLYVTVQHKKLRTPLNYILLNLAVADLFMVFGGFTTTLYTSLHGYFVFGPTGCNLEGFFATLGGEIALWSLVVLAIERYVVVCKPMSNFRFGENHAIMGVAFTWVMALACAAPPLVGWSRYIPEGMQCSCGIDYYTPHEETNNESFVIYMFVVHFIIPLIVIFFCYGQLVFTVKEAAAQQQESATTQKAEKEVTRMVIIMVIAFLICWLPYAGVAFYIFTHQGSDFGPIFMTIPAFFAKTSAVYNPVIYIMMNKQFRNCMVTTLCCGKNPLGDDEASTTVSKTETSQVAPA

In general, pKd refers to the negative decadic logarithm of the Kd, by convention in mol/L. In general, koff refers to the rate constant with which the complex falls apart. What is called kon is the rate constant with which the complex forms. Consider “C-terminally truncated European robin cryptochrome 4a (ErCry4a-497) (domain or fragment)”, for which, in assay [1], the pKd was 6.44. Further, in assay [2], the negative logarithm of the Kd (pKd) was 6.47, the off-rate (koff) was determined as 0.00305 s⁻¹ and the on-rate (kon) is 6510 M⁻¹ s⁻¹. In addition, in assay [3], the pKd is 6.70, the koff turned out to be 0.000915 s⁻¹ and the on-rate constant (kon) amounted to 5350 M⁻¹ s⁻¹.

Consider “European robin cryptochrome 1a (ErCry1a), apo form without bound FAD (natural protein)”, for which, in assay [4], the pKd is 6.40; the ka1 (two-state-reaction model, forward reaction rate) stood at 130000 M⁻¹ s⁻¹; the kd1 (two-state-reaction model, backward reaction rate) amounted to 0.0527 s⁻¹.

For “European robin cryptochrome 1b (ErCry1b), apo form without bound FAD (natural protein)”, in assay [4], the negative logarithm of the Kd (pKd) is 5.82; the ka1 (two-state-reaction model, forward reaction rate) was determined as 21700 M⁻¹ s⁻¹; the kd1 (two-state-reaction model, backward reaction rate) turned out to be 0.0332 s⁻¹.

With “European robin cryptochrome 4a (ErCry4a), purified recombinant, as used in SPR (natural protein)”, the negative logarithm of the Kd (pKd) in assay [5] is 7.46; in assay [6] it was 7.49; in assay [4], 6.70 and 6.54. Further, the ka1 (two-state-reaction model, step A + B to AB) was 343000 M⁻¹ s⁻¹ in assay [6] and 3320 M⁻¹ s⁻¹ in assay [4]. For the same substance, the kd1 (two-state-reaction model, step AB to A + B) in assay [6] amounted to 0.011 s⁻¹; in assay [4], 0.000674 s⁻¹.

In assay [7], “mClover3-ErCry4 (ErCry4a with mClover3 fused to its N-terminus) (natural protein)” showed an FRET efficiency of 49.7%.

In assay [7], “mClover3-ErCry4, truncated after aa 497 (domain or fragment)” came in with an FRET efficiency of 49.5%.

Take transducin (from UniProt P04695): the pKd in assay [8] was 6.44.
